The values below come from article PMC5543122, “Structural basis of Notch O-glucosylation and O–xylosylation by mammalian protein–O-glucosyltransferase 1 (POGLUT1)” (Nature Communications, 2017).

Assay [1] concerns the target human Protein O-glucosyltransferase 1 (POGLUT1), residues 29-385 (human) (UniProt Q8NBL1).
Assay [2] deals with Drosophila Rumi, residues 39-406 (Drosophila) (UniProt Q8T045).
Chain of UniProt Q8T045 (Q8T045 39-406): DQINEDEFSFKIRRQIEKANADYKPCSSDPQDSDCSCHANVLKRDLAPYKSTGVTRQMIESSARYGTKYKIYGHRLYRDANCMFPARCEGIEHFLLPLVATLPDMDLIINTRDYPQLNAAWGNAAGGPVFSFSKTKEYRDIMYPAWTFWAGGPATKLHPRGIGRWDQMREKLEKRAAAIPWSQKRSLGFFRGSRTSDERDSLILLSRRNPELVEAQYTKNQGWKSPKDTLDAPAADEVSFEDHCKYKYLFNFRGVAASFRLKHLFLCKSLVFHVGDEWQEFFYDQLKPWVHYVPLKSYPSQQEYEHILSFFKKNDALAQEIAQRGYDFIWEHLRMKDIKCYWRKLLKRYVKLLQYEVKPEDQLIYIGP

Chain of UniProt Q8NBL1 (Q8NBL1 29-385): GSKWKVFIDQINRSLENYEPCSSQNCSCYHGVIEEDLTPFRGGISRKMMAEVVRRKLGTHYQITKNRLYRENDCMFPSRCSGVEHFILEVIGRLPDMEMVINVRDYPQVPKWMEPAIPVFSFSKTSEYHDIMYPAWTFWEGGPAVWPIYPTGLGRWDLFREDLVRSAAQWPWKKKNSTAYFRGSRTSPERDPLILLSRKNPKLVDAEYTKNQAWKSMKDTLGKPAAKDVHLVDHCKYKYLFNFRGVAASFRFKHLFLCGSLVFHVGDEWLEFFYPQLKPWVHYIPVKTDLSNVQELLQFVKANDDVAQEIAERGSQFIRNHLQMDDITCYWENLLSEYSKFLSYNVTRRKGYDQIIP

Take “human Notch1 EGF-like domain 12 with a 4-residue C2C3 loop, MBP fusion (from UniProt P46531 452-488) (domain or fragment)”: the K M of the EGF-like domain (MBP fusion) for glucosylation, 2.5 mM UDP-glucose, coupled spectrophotometric assay, 37 °C in assay [1] turned out to be 0.155 mM; in assay [2], 0.16 mM.
With “human Notch1 EGF-like domain 12 with a 6-residue C2C3 loop, MBP fusion (from UniProt P46531 452-488) (domain or fragment)”, the K M of the EGF-like domain (MBP fusion) for glucosylation, 2.5 mM UDP-glucose, coupled spectrophotometric assay, 37 °C in assay [1] and in assay [2] was 1 mM throughout.
For the substance “human Notch1 EGF-like domain 12 with a 7-residue C2C3 loop, MBP fusion (from UniProt P46531 452-488) (domain or fragment)”, the K M of the EGF-like domain (MBP fusion) for glucosylation, 2.5 mM UDP-glucose, coupled spectrophotometric assay, 37 °C in assay [1] and in assay [2] was 1 mM in each case.
